Assay results from publication PMC4140284, “Human UTY(KDM6C) Is a Male-specific N^ϵ-Methyl Lysyl Demethylase” (The Journal of Biological Chemistry, 2014).
“Also recorded” adds a separate entry of the source.

What was measured:
[1] = system: ANF promoter in HEK 293T cells; experiment: ANF promoter dual luciferase assay in HEK 293T cells; assay type: cell-based; details: for ANF promoter luciferase expression in the presence of Nkx2.5: Nkx2.5 present
Procedure: (§1) For cell-based experiments, HEK 293T and HeLa cells were cultured at 37 °C and 5% CO2 in DMEM (Lonza) supplemented with 10% fetal bovine serum (FBS) (Invitrogen) and 1% Glutamax (Invitrogen). For microscopy, HeLa cells were seeded into 96-well clear bottom optical grade plates (BD Biosciences) at 8000 cells/well and allowed to settle overnight. Transfections were carried out the next day. For each well, 0.1 μg of plasmid and 0.25 μl of Lipofectamine 2000 (Invitrogen) were each incubated in 25 μl of Opti-MEM (Invitrogen) for 5 min at room temperature. The two solutions were then mixed gently but thoroughly and incubated for 20 min at room temperature. The mixture was added to the cells in 50 μl of fresh medium. Four hours later, the medium was changed, and the cells were incubated for a further 24 h before fixation. Cells were fixed in 4% (v/v) aqueous formaldehyde for 20 min, permeabilized in 0.5% Triton X-100 in phosphate-buffered saline (PBS) for 8 min, and blocked in 3% (w/v) FBS in PBS for 1 h with a PBS wash between each step. The primary antibodies were then added to the cells in blocking solution. After 1 h at room temperature, cells were washed three times in PBS, incubated with secondary antibodies for 1 h, rinsed three times in PBS again, and counterstained with DAPI before imaging. Luciferase activity assays were carried out as described previously ([13], [22], [40]). The atrial natriuretic factor (ANF) promoter-luciferase reporter was a kind gift from Benoit Bruneau ([41]). As for immunofluorescence assays, this construct was co-transfected into HEK 293T cells in the presence of full-length (FL) WT UTY(KDM6C) or H1095 UTY(KDM6C). Luciferase activity was measured using the Promega Dual-Luciferase Reporter Assay System on a Promega GloMax 20/20 luminometer. Readings were normalized to a Renilla luciferase control that was co-transfected with all samples.

[2] = system: H3K27Me3 levels in HeLa cells; experiment: Immunofluorescence of global H3K27Me3 levels on overexpression in HeLa cells; assay type: cell-based; details: exogenous overexpression in HeLa cells
Procedure: as §1, with “After 1 h at room temperature, cells were washed three times in PBS, incubated with secondary antibodies for 1 h, rinsed three times in PBS again, and counterstained with DAPI before imaging. Luciferase activity assays were carried out as described previously ([13], [22], [40]). The atrial natriuretic factor (ANF) promoter-luciferase reporter was a kind gift from Benoit Bruneau ([41]). As for immunofluorescence assays, this construct was co-transfected into HEK 293T cells in the presence of full-length (FL) WT UTY(KDM6C) or H1095 UTY(KDM6C).” left out, “samples. […]” for “samples.”

Row | Molecule | ANF promoter luciferase expression in the presence of Nkx2.5 ([1]; HEK 293T cells) | change in global H3K27Me3 level [2] | ANF promoter luciferase expression (in words) ([1]; HEK 293T cells, without Nkx2.5, *, p < 0.05 unpaired Student's t test) | increase in ANF promoter-coupled luciferase expression ([1]; overexpression in HEK 293T cells, relative to empty vector control, average of three biological replicates of triplicate transfections)
1 | Nkx2.5: transcription factor (protein, UniProt P52952 1-324, looked up) Homeobox protein Nkx-2.5: MFPSPALTPTPFSVKDILNLEQQQRSLAAAGELSARLEATLAPSSCMLAAFKPEAYAGPEAAAPGLPELRAELGRAPSPAKCASAFPAAPAFYPRAYSDPDPAKDPRAEKKELCALQKAVELEKTEADNAERPRARRRRKPRVLFSQAQVYELERRFKQQRYLSAPERDQLASVLKLTSTQVKIWFQNRRYKCKRQRQDQTLELVGLPPPPPPPARRIAVPVLVRDGKPCLGDSAPYAPAYGVGLNPYGYNAYPAYPGYGGAACSPGYSCTAAYPAGPSPAQPATAAANNNFVNFGVGDLNAVQSPGIPQSNSGVSTLHGIRAW | enhanced expression from the ANF promoter |  |  | 
2 | FL WT UTY(KDM6C): full-length wild type UTY(KDM6C) exogenously expressed in cells (protein, UniProt O14607 1-1347, looked up, full-length, full-length wild type UTY(KDM6C) exogenously expressed in cells) MKSCAVSLTTAAVAFGDEAKKMAEGKASRESEEESVSLTVEEREALGGMDSRLFGFVRLHEDGARTKTLLGKAVRCYESLILKAEGKVESDFFCQLGHFNLLLEDYSKALSAYQRYYSLQADYWKNAAFLYGLGLVYFYYNAFHWAIKAFQDVLYVDPSFCRAKEIHLRLGLMFKVNTDYKSSLKHFQLALIDCNPCTLSNAEIQFHIAHLYETQRKYHSAKEAYEQLLQTENLPAQVKATVLQQLGWMHHNMDLVGDKATKESYAIQYLQKSLEADPNSGQSWYFLGRCYSSIGKVQDAFISYRQSIDKSEASADTWCSIGVLYQQQNQPMDALQAYICAVQLDHGHAAAWMDLGTLYESCNQPQDAIKCYLNAARSKRCSNTSTLAARIKFLQNGSDNWNGGQSLSHHPVQQVYSLCLTPQKLQHLEQLRANRDNLNPAQKHQLEQLESQFVLMQQMRHKEVAQVRTTGIHNGAITDSSLPTNSVSNRQPHGALTRVSSVSQPGVRPACVEKLLSSGAFSAGCIPCGTSKILGSTDTILLGSNCIAGSESNGNVPYLQQNTHTLPHNHTDLNSSTEEPWRKQLSNSAQGLHKSQSSCLSGPNEEQPLFSTGSAQYHQATSTGIKKANEHLTLPSNSVPQGDADSHLSCHTATSGGQQGIMFTKESKPSKNRSLVPETSRHTGDTSNGCADVKGLSNHVHQLIADAVSSPNHGDSPNLLIADNPQLSALLIGKANGNVGTGTCDKVNNIHPAVHTKTDHSVASSPSSAISTATPSPKSTEQRSINSVTSLNSPHSGLHTVNGEGLGKSQSSTKVDLPLASHRSTSQILPSMSVSICPSSTEVLKACRNPGKNGLSNSCILLDKCPPPRPPTSPYPPLPKDKLNPPTPSIYLENKRDAFFPPLHQFCTNPKNPVTVIRGLAGALKLDLGLFSTKTLVEANNEHMVEVRTQLLQPADENWDPTGTKKIWRCESNRSHTTIAKYAQYQASSFQESLREENEKRTQHKDHSDNESTSSENSGRRRKGPFKTIKFGTNIDLSDNKKWKLQLHELTKLPAFARVVSAGNLLTHVGHTILGMNTVQLYMKVPGSRTPGHQENNNFCSVNINIGPGDCEWFVVPEDYWGVLNDFCEKNNLNFLMSSWWPNLEDLYEANVPVYRFIQRPGDLVWINAGTVHWVQAVGWCNNIAWNVGPLTACQYKLAVERYEWNKLKSVKSPVPMVHLSWNMARNIKVSDPKLFEMIKYCLLKILKQYQTLREALVAAGKEVIWHGRTNDEPAHYCSICEVEVFNLLFVTNESNTQKTYIVHCHDCARKTSKSLENFVVLEQYKMEDLIQVYDQFTLALSLSSSS | does not further enhance expression | no detectable decrease; also recorded: no change in H3K27Me3 levels | enhanced expression | 5 -fold
